# Measured values as given in the supplement of paper PMC10065799, “High-throughput profiling of sequence recognition by tyrosine kinases and SH2 domains using bacterial peptide display” (eLife, 2023).
# Experiments:
# [1] = tested on: AncSZ; experiment: phosphorylation enrichment, bacterial display (enrichment ratio); higher = better substrate or ligand; peptides without Tyr show the background
# [2] = target: EPHB1 (UniProt P54762); experiment: as above
# [3] = target: EPHB2 (UniProt P29323); experiment: as above
# EPHB2, sequence (P29323 whole entry, looked up): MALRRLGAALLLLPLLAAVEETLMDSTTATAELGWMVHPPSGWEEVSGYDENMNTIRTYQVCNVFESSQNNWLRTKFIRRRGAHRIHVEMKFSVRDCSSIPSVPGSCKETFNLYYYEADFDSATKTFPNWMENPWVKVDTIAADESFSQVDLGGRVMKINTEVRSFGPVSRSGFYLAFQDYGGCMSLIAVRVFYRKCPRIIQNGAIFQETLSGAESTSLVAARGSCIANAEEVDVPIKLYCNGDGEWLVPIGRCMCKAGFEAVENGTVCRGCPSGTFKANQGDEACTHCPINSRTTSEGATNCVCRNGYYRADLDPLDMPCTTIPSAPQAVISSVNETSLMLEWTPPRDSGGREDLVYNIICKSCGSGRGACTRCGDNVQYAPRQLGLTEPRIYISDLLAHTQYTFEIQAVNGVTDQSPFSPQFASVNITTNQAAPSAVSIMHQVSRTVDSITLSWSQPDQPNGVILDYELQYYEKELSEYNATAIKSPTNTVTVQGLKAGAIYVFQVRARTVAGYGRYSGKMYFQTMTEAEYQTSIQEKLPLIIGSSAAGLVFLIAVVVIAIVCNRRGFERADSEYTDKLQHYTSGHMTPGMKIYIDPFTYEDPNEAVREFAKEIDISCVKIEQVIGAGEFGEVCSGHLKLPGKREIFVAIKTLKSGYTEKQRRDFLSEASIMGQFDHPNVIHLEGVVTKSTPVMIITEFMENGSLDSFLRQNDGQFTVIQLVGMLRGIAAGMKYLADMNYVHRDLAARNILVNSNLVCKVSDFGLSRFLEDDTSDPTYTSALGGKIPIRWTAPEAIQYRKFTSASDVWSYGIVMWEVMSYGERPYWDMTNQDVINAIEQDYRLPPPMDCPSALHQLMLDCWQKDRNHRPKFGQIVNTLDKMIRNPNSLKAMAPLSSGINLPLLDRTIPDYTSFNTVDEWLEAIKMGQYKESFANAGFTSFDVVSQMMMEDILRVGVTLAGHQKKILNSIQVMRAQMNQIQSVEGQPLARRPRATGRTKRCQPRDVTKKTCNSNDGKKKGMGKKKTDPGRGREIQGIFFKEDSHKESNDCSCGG
# [4] = target: FGFR1 (UniProt P11362); experiment: as above
# [5] = target: FGFR3 (UniProt P22607); experiment: as above
# FGFR3, sequence (P22607 whole entry, looked up): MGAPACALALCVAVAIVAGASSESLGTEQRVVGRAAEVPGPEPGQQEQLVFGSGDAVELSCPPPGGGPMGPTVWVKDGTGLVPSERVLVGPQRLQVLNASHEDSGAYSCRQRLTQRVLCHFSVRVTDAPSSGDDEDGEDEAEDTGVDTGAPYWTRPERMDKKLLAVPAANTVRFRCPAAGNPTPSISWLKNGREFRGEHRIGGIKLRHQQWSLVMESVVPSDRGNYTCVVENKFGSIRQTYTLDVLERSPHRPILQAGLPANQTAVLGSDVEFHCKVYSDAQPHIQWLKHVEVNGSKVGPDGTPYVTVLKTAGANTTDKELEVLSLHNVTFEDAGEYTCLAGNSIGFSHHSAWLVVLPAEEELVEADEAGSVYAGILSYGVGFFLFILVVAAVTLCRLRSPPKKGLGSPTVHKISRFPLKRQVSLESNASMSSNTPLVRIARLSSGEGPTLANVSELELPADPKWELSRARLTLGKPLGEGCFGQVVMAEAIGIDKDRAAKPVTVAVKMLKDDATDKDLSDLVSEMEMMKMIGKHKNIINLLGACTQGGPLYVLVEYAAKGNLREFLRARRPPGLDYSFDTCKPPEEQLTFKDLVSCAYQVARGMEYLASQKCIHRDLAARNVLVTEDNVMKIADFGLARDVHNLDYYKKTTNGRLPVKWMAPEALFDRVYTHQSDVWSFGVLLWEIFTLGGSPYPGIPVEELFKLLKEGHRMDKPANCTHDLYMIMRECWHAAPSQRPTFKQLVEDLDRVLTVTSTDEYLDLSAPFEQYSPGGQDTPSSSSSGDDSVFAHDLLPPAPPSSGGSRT
# [6] = tested on: Fer (mouse); experiment: as above
# [7] = target: Fes (UniProt P07332); experiment: as above
# Fes, sequence (P07332 whole entry, looked up): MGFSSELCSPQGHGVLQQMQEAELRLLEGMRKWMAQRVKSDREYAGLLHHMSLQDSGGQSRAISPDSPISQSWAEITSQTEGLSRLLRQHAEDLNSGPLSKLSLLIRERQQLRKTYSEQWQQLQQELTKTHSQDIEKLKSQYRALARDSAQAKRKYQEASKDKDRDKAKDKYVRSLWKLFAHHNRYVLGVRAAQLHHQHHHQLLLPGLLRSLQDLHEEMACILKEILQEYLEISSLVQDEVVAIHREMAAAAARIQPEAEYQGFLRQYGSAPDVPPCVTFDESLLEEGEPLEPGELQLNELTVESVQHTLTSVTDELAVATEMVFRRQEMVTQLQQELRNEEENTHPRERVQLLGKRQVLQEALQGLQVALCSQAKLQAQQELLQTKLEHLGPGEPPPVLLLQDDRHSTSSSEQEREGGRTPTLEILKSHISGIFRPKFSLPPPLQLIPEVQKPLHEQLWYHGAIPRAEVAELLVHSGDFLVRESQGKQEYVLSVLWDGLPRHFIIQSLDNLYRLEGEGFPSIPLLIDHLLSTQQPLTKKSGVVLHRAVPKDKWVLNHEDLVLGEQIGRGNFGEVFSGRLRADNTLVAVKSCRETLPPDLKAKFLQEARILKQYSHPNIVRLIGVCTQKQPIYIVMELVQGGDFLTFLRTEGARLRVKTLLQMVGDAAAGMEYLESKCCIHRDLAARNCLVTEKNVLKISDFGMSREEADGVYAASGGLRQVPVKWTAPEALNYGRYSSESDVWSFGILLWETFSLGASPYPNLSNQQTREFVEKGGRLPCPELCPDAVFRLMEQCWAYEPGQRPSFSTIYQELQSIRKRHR
# [8] = target: Fyn (UniProt P06241); experiment: as above
# [9] = target: Hck (UniProt P08631); experiment: as above
# [10] = target: Jak2 (UniProt O60674); experiment: as above
# Jak2, sequence (O60674 whole entry, looked up): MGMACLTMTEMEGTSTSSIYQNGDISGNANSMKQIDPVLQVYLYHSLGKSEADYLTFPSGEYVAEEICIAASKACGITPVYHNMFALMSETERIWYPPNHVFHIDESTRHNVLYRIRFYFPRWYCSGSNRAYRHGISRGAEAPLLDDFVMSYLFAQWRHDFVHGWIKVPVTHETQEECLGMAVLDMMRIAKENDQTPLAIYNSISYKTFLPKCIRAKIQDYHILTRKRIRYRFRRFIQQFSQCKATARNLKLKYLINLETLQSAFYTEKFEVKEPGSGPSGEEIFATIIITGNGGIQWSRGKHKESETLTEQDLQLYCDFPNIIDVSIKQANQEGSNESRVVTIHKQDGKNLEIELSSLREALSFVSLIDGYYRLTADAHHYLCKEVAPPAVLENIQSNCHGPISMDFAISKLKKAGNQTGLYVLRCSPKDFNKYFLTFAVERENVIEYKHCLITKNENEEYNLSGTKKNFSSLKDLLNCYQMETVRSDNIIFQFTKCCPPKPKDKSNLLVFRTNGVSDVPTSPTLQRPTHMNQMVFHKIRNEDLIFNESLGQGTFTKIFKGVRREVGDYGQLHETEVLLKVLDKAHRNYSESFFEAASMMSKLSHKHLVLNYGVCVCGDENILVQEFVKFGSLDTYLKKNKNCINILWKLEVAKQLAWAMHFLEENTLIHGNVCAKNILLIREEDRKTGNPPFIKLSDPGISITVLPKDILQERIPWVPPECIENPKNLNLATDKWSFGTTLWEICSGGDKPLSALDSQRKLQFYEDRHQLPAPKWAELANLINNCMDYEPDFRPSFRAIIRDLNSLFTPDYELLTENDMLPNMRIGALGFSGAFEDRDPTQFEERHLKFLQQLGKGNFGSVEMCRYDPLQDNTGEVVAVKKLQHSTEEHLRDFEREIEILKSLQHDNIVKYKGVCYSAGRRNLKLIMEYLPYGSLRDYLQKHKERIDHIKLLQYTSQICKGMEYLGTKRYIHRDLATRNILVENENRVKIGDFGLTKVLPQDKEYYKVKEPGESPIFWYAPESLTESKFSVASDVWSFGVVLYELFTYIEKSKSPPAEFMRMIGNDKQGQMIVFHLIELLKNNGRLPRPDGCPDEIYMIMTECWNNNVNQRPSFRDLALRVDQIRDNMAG
# [11] = target: MERTK (UniProt Q12866); experiment: as above
# [12] = tested on: c-Abl (mouse); experiment: as above
# [13] = tested on: c-Src; experiment: as above
# [14] = target: Grb2 SH2 (UniProt P62993); experiment: SH2 binding enrichment of the phosphorylated peptide, bacterial display (enrichment ratio); higher = better substrate or ligand; peptides without Tyr show the background
# [15] = target: SHP2-C SH2; experiment: as above
# [16] = target: c-Src SH2; experiment: as above
# 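Wherever SH2 binding enrichment of the phosphorylated peptide, bacterial display is given: peptide library displayed on the E. coli surface as eCPX fusions, selected cells deep-sequenced, score is each peptide's frequency after selection divided by its frequency in the input.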
# 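Wherever phosphorylation enrichment, bacterial display is given: 11-residue human phosphosite peptides and single-mutation variants displayed on the E. coli surface, counted by deep sequencing, each peptide's frequency after selection divided by its frequency in the unselected input library; frequency after pTyr selection over input frequency; kinase dosed for 20-30% of maximal phosphorylation in three min.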
# EPHB1, sequence (P54762 whole entry, looked up): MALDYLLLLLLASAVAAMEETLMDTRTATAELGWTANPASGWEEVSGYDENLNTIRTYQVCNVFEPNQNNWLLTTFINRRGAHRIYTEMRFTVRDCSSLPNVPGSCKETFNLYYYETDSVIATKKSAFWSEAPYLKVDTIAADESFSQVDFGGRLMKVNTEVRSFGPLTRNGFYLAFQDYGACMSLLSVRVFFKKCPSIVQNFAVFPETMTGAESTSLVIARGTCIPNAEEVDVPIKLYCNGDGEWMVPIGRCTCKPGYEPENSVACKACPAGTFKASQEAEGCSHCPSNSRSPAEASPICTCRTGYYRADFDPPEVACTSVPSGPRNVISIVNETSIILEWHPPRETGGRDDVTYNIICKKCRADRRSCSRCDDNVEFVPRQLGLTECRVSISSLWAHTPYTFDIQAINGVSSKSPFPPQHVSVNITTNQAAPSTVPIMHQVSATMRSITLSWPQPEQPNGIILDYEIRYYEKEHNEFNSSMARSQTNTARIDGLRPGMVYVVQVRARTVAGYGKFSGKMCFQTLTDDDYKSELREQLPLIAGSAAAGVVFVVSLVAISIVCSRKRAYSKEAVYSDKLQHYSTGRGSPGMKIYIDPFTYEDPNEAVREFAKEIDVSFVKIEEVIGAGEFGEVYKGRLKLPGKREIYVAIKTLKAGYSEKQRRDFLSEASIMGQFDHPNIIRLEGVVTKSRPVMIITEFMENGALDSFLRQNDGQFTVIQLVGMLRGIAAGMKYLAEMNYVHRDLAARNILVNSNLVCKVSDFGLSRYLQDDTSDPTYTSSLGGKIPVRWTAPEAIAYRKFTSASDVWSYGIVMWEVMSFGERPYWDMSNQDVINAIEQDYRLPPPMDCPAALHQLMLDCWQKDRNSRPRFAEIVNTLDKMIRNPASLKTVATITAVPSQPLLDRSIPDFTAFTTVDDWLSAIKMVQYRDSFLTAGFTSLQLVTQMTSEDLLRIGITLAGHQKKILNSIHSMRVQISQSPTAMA
Sequence,SH2 binding enrichment [14],SH2 binding enrichment [15],SH2 binding enrichment [16],phosphorylation enrichment [1],phosphorylation enrichment [2],phosphorylation enrichment [3],phosphorylation enrichment [4],phosphorylation enrichment [5],phosphorylation enrichment [6],phosphorylation enrichment [7],phosphorylation enrichment [8],phosphorylation enrichment [9],phosphorylation enrichment [10],phosphorylation enrichment [11],phosphorylation enrichment [12],phosphorylation enrichment [13]
KERNQYGEVMV [MMP21_Y347],0.93,0.825,0.391,0.587,0.455,0.436,0.502,0.463,0.653,0.734,1.39,0.507,0.547,0.404,0.683,0.744
GDLTDYLMKIL [ACTA1_Y190_R185G],1.44,1.19,0.711,0.788,0.508,0.476,0.437,0.509,0.42,0.821,0.397,0.453,0.648,0.355,0.56,0.323
LNPDGYKKAYE [CPXM2_Y427_E428K],0.744,0.613,0.444,0.905,0.605,0.749,0.86,1.46,0.619,1.14,0.676,0.515,1,0.734,1.35,0.513
KRFRIYHLATS [BRCA2_Y3009_YF],1.05,1.18,1.24,0.567,0.353,0.435,0.358,0.481,0.422,1.57,0.434,0.454,0.439,0.38,0.391,0.482
DLLMQHPKAQG [FAM83C_Y600_Y600H],0.996,0.836,0.466,0.566,0.515,0.332,0.5,0.892,0.483,0.693,0.509,0.523,0.801,0.53,1.46,0.646
SHSMRYFDTAV [HLA-C_Y31],0.716,0.467,0.51,0.57,0.42,0.329,0.471,0.521,0.384,0.586,0.416,0.424,0.492,0.497,0.436,0.367
NIRKKYFRAIL [CHD7_Y1217_Q1214R_YF],0.764,0.544,0.356,0.583,0.466,0.6,0.48,0.546,0.394,0.661,0.45,0.451,0.496,0.555,0.633,0.504
PINLFYLMDLS [ITGB2_Y131_D128N_YF],0.772,0.781,0.489,1.46,0.752,0.886,0.772,1.11,0.695,1.98,0.653,0.718,1.92,0.763,2.11,1.11
RAEAPYLLVSN [LRIG1_Y1054_Q1053P],0.847,0.645,0.695,0.655,0.4,0.36,1.72,1.18,0.699,0.775,0.654,0.564,0.748,0.456,0.556,1.79
EAVSIYQFHGQ [CBLC_Y402],0.757,0.511,0.464,1.01,2.31,1.62,0.554,0.594,10.4,0.926,5.93,3.09,0.852,5.19,0.969,7.06
FCRITYDIFPF [INTS13_Y67_M66T_YF],1.03,0.853,0.485,1.66,2.38,3.05,0.514,1.05,0.594,1.6,1.31,2.62,1.29,2.2,1.12,2.36
FGEFRYRSVIK [CFTR_Y517_D513G_YF],0.567,0.426,0.423,0.728,0.558,0.559,0.44,0.541,0.396,0.891,0.409,0.565,0.744,0.409,0.574,0.426
WHHTFYNELRV [ACTA1_Y93],1.2,1.52,1.9,0.875,0.558,0.483,0.552,0.645,0.54,1.01,0.502,0.997,0.783,0.587,0.657,0.546
IYQASYYRRGD [LTK_Y676_R673Q],0.628,0.742,0.412,0.822,0.659,0.66,0.479,0.473,1.43,0.695,7.6,10.6,0.528,6.37,11.5,6.2
QYPDVYAREEV [CRX_Y67],1.05,0.812,0.49,3.78,1.57,1.82,0.959,1.66,1.93,4.98,1.66,2.18,5.06,1.8,3.34,3.8
RKQQLYIAMEE [CCDC39_Y593_T594I],0.916,0.909,0.938,0.993,0.651,0.822,0.8,0.543,0.607,1.28,0.655,0.431,0.7,1,0.725,0.753
KRYRIYHLAIS [BRCA2_Y3009_T3013I],1.13,1.03,1.51,0.535,0.37,0.358,0.599,0.464,0.406,0.68,0.343,0.446,0.604,0.62,0.449,0.459
LARNMYDKEFF [MET_Y1230_D1228N_YF],0.427,0.739,0.541,1.03,0.706,0.592,0.602,0.62,0.541,1.01,0.529,0.694,1,0.578,0.793,0.626
KLQQWYREPRS [GPI_Y17_H20P],0.999,0.799,0.5,0.85,0.44,0.712,0.36,0.491,0.385,0.708,0.446,0.493,0.562,0.463,0.615,0.507
DNPAKYFILES [DPP10_Y512],0.832,0.749,0.834,0.833,0.544,0.567,0.508,0.715,0.419,1.04,0.485,0.51,0.955,0.542,0.558,0.442

# Now from value to sequence, other results behind:
SH2 binding enrichment [14],SH2 binding enrichment [15],SH2 binding enrichment [16],Sequence,phosphorylation enrichment [1],phosphorylation enrichment [2],phosphorylation enrichment [3],phosphorylation enrichment [4],phosphorylation enrichment [5],phosphorylation enrichment [6],phosphorylation enrichment [7],phosphorylation enrichment [8],phosphorylation enrichment [9],phosphorylation enrichment [10],phosphorylation enrichment [11],phosphorylation enrichment [12],phosphorylation enrichment [13]
0.719,0.724,0.691,SSAETYSRMRL [NBEAL2_Y1835],0.513,0.443,0.436,0.393,0.44,0.54,0.577,0.431,0.709,0.501,0.412,0.509,0.471
0.829,0.473,6.69,EESREYDRLFE [PIK3R1_Y463_K459E_YF],1.46,0.489,0.681,0.609,0.762,0.599,1.49,0.493,0.657,1.48,0.546,1.07,0.654
0.769,1.09,0.613,PSQRRNVFFFS [PTEN_Y174_Y174N_YF],1.31,0.559,0.342,1.07,0.777,0.493,1.23,0.924,1.41,0.54,0.571,0.817,0.591
0.631,0.719,0.457,VECQVYAEDPY [PCCA_Y401_R399Q],1.51,0.828,0.8,0.575,1.12,0.846,1.65,0.765,0.669,1.28,0.466,0.981,1.02
0.683,0.648,0.505,GLDGSYLLTDS [SH2D1A_Y29_R32T],0.864,0.491,0.541,0.483,0.604,0.455,0.863,0.423,0.435,0.697,0.369,0.551,0.469
0.888,0.872,0.547,FADIAYNFRHR [PAH_Y166_G171R_YF],0.577,0.343,0.425,0.317,0.44,0.348,0.652,0.407,0.374,0.487,0.405,0.537,0.415
0.62,0.627,0.421,VSLEAYCKHKY [RXRA_Y403_A398V],1.01,0.7,0.584,0.611,0.662,0.541,1.24,0.656,0.579,1.05,0.559,0.96,0.46
0.799,0.451,0.723,SEELHYYVQNH [UQCRC2_Y207_F208Y],2.04,0.89,0.788,3.68,4.09,0.954,1.62,0.633,0.732,1.68,2.86,2.09,1.48
0.721,0.654,0.384,ATHRGYDLDNP [MMUT_Y146_S148L],0.64,0.459,0.434,0.409,0.727,0.413,0.79,0.392,0.411,0.698,0.343,0.614,0.377
0.793,0.574,0.343,GVLDIYGFEIL [MYO1A_Y382],1.14,0.903,0.541,0.579,0.787,0.694,1.14,2.92,1.59,0.978,0.41,0.695,1.76
0.642,0.635,0.497,NAGDFYDLFGG [PTPN11_Y63_T59A_YF],1.11,0.651,0.564,0.455,0.769,2.43,1.16,5.68,3.55,0.971,2.72,0.762,6.02
0.884,0.657,0.624,RTTIHYNFMCN [TP53_Y234_C229R_YF],1.33,0.908,0.808,0.648,1.11,0.668,1.46,0.527,0.54,1.29,0.609,2.01,0.514
0.899,0.905,0.535,KDQGIYEDYVE [MYL6_Y86_T85I],1.2,0.74,0.853,0.58,0.672,1.03,1.08,2.05,1.06,0.936,0.489,0.851,2.02
